Experimental data taken from paper PMC8111780, “NMR structural analysis of the yeast cytochrome c oxidase subunit Cox13 and its interaction with ATP” (BMC Biology, 2021).

What was measured:
Cox13 = target: T1, Cox13 (Saccharomyces cerevisiae, UniProt P32799); experiment: 1H-15N HSQC NMR titration (chemical shift perturbation, global fit); format: binding
T1 construct: 15 kDa; homodimer
T1 sequence (P32799 1-129): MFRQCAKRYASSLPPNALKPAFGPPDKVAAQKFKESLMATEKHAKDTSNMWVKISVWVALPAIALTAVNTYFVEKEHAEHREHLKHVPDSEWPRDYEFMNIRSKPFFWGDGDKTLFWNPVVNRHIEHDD

Cox13Δ-CytcO = system: T2, Cox13Δ-CytcO; experiment: oxygen consumption (Clark electrode), activity vs ATP; format: biochemical, Saccharomyces cerevisiae; conditions: tentative fit of stimulation of turnover; yeast cyt. c 50 μM, ascorbate, TMPD, 0.035% DDM, KPi; allosteric, more than one site
T2 construct: gene COX1; Complex IV lacking subunit Cox13, Flag-tag on Cox6, purified from yeast membranes in DDM; ATP site not assigned

[1] = target: Cox13Δ-CytcO: S. cerevisiae cytochrome c oxidase lacking Cox13, with a Flag-tag on Cox6 (S. cerevisiae) (UniProt P00401)
[2] = target: wildtype S. cerevisiae cytochrome c oxidase (CytcO, Complex IV) with a 6xHis-tag on Cox13 (S. cerevisiae) (UniProt P00401)
[3] = target: the molecule itself; experiment: SEC; Superdex 200 10/300; 20 mM NaPi pH 6.5, 50 mM L-Arg, 50 mM L-Glu, 1 mM DTT, 3 mM DPC; Cox13-DPC complex elutes in a single peak of apparent mass 55-60 kDa

Chain of Cox13Δ-CytcO: S. cerevisiae cytochrome c oxidase lacking Cox13, with a Flag-tag on Cox6 (S. cerevisiae) (P00401 whole entry, looked up, stated change not applied): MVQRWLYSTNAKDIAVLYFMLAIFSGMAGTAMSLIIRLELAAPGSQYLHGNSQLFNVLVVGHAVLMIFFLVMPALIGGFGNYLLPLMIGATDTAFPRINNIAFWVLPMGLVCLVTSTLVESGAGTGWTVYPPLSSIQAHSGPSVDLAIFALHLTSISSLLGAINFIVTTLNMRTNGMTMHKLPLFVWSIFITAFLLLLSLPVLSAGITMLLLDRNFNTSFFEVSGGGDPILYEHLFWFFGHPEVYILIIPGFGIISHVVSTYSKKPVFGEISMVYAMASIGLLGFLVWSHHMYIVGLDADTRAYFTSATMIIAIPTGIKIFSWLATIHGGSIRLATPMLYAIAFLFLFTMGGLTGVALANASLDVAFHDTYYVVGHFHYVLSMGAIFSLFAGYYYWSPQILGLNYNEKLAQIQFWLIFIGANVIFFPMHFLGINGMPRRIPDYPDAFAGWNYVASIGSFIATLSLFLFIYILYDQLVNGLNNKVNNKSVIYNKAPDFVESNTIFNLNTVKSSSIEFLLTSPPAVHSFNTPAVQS
Chain of wildtype S. cerevisiae cytochrome c oxidase (CytcO, Complex IV) with a 6xHis-tag on Cox13 (S. cerevisiae) (P00401 whole entry, looked up, one chain of several): as the sequence (P00401 whole entry, looked up, stated change not applied) above

Molecule `Nc1ncnc2c1ncn2[C@@H]1O[C@H](COP(=O)(O)OP(=O)(O)O)[C@@H](O)[C@H]1O` [ADP] has a Kd (Cox13) of 17 ± 2 mM.

`Nc1ncnc2c1ncn2[C@@H]1O[C@H](COP(=O)(O)OP(=O)(O)OP(=O)(O)O)[C@@H](O)[C@H]1O` [ATP] was tested, and the Kd (Cox13) was 15 ± 2 mM and the Kd (Cox13Δ-CytcO) was “ATP binds less tight (with tentative Kd in the mM range”.

“yeast cytochrome c (from UniProt P00044 1-109) (natural protein)” showed a Km^1 (low Km) for cyt. c, oxygen-consumption turnover of purified Cox13Δ-CytcO against added yeast cyt. c, no ATP [1] of 0.2 µM, a Km^2 (high Km) for cyt. c, oxygen-consumption turnover of purified Cox13Δ-CytcO against added yeast cyt. c, no ATP [1] of 20 µM and a single Km for cyt. c, oxygen-consumption turnover of purified Cox13Δ-CytcO against added yeast cyt. c, with 5 mM ATP [1] of 5.8 µM. The Km^1 (low Km) for cyt. c, oxygen-consumption turnover of purified CytcO against added yeast cyt. c, no ATP [2] was 1.3 µM, the Km^2 (high Km) for cyt. c, oxygen-consumption turnover of purified CytcO against added yeast cyt. c, no ATP [2] was 20 µM and the single Km for cyt. c, oxygen-consumption turnover of purified CytcO against added yeast cyt. c, with 5 mM ATP [2] was 8.6 µM.

B1: Cox13 (cytochrome c oxidase subunit Cox13) from S. cerevisiae, refolded in DPC micelles (natural protein)
chain: ASSLPPNALKPAFGPPDKVAAQKFKESLMATEKHAKDTSNMWVKISVWVALPAIALTAVNTYFVEKEHAEHREHLKHVPDSEWPRDYEFMNIRSKPFFWGDGDKTLFWNPVVNRHIEHDD
notes: Cox13, cytochrome c oxidase subunit of S. cerevisiae; the gene was cloned into pET-28a; predicted mass 15 kDa; residues assigned up to I125; Isotope-labelled (15N and/or 13C) or unlabelled, depending on the experiment; also called Cox13-DPC complex; CoxVIa in mammals (homolog)
For B1, the “stoichiometry N” value [3] was 2.
